Sequences and labels used below:
B1: SEQ ID NO: 141 (peptide)
peptide: {4‑(trifluoromethyl)benzoic acid}-L[NMeQ]TLR[S5]IQR[S5][Cba][2Nal]-NH2
modifications: staple 6-10; not fully specified
notes: the footnote mark in T0158 is printed 19, seemingly for 10
B2: SEQ ID NO: 196 (peptide)
peptide: Ac-HRQRSLQTLR[S5]IQR[S5][Phe(4-Cl)][2Nal]-NH2
modifications: staple 11-15
SMILES: CC[C@H](C)[C@@H]1NC(=O)[C@@](C)(NC(=O)[C@H](CCCNC(=N)N)NC(=O)[C@H](CC(C)C)NC(=O)[C@@H](NC(=O)[C@H](CCC(N)=O)NC(=O)[C@H](CC(C)C)NC(=O)[C@H](CO)NC(=O)[C@H](CCCNC(=N)N)NC(=O)[C@H](CCC(N)=O)NC(=O)[C@H](CCCNC(=N)N)NC(=O)[C@H](Cc2c[nH]cn2)NC(C)=O)[C@@H](C)O)CCCC=CCCC[C@@](C)(C(=O)N[C@@H](Cc2ccc(Cl)cc2)C(=O)N[C@@H](Cc2ccc3ccccc3c2)C(N)=O)NC(=O)[C@H](CCCNC(=N)N)NC(=O)[C@H](CCC(N)=O)NC1=O
B3: SEQ ID NO: 211 (peptide)
peptide: {Palmitoyl-PEG4″}-HRQRS[Cha][NMeQ′]TLR[S5]IQR[S5][Cha][2Nal]-NH2
modifications: staple 11-15; not fully specified; printed as HRQRS(Cha)(N-methylQ)TLRXaa3IQRXaa6(Cha)(2-Nal)
B4: SEQ ID NO: 202 (peptide)
peptide: Ac-HR[NMeQ′]RSL[NMeQ′]TLR[S5]IQR[S5][Phe(4-F)][2Nal]-NH2
modifications: staple 11-15; not fully specified; printed as HR(N-methylQ)RSL(N-methylQ)TLRXIQRX(4-F-Ph)(2-Nal), X/X stapled, (S) α-methyl, N-terminal Ac, C-terminal NH2
B5: SEQ ID NO: 203 (peptide)
peptide: Ac-HR[NMeQ′]RSL[NMeQ′]TLR[S5]IQR[S5][Phe(3,4-Cl2)][2Nal]-NH2
modifications: staple 11-15; not fully specified; printed as HR(N-methylQ)RSL(N-methylQ)TLRXIQRX(3,4-diCl-Ph)(2-Nal), X/X stapled, (S) α-methyl, N-terminal Ac, C-terminal NH2
B6: SEQ ID NO: 216 (peptide)
peptide: Ac-CRQRSLQTLR[S5]IQR[S5][Cha][2Nal]-NH2
modifications: staple 11-15
SMILES: CC[C@H](C)[C@@H]1NC(=O)[C@@](C)(NC(=O)[C@H](CCCNC(=N)N)NC(=O)[C@H](CC(C)C)NC(=O)[C@@H](NC(=O)[C@H](CCC(N)=O)NC(=O)[C@H](CC(C)C)NC(=O)[C@H](CO)NC(=O)[C@H](CCCNC(=N)N)NC(=O)[C@H](CCC(N)=O)NC(=O)[C@H](CCCNC(=N)N)NC(=O)[C@H](CS)NC(C)=O)[C@@H](C)O)CCCC=CCCC[C@@](C)(C(=O)N[C@@H](CC2CCCCC2)C(=O)N[C@@H](Cc2ccc3ccccc3c2)C(N)=O)NC(=O)[C@H](CCCNC(=N)N)NC(=O)[C@H](CCC(N)=O)NC1=O
B7: SEQ ID NO: 200 (peptide)
peptide: Ac-HRQRS[Cha][NMeQ′]TLR[S5]IQR[S5][Phe(4-F)][2Nal]-NH2
modifications: staple 11-15; not fully specified; printed as HRQRS(Cha)(N-methylQ)TLRXaa3IQRXaa6(4-F-Ph)(2-Nal)
B8: SEQ ID NO: 217 (peptide)
peptide: Ac-[NMeC]RQRSLQTLR[S5]IQR[S5][Cha][2Nal]-NH2
modifications: staple 11-15
SMILES: CC[C@H](C)[C@@H]1NC(=O)[C@@](C)(NC(=O)[C@H](CCCNC(=N)N)NC(=O)[C@H](CC(C)C)NC(=O)[C@@H](NC(=O)[C@H](CCC(N)=O)NC(=O)[C@H](CC(C)C)NC(=O)[C@H](CO)NC(=O)[C@H](CCCNC(=N)N)NC(=O)[C@H](CCC(N)=O)NC(=O)[C@H](CCCNC(=N)N)NC(=O)[C@H](CS)N(C)C(C)=O)[C@@H](C)O)CCCC=CCCC[C@@](C)(C(=O)N[C@@H](CC2CCCCC2)C(=O)N[C@@H](Cc2ccc3ccccc3c2)C(N)=O)NC(=O)[C@H](CCCNC(=N)N)NC(=O)[C@H](CCC(N)=O)NC1=O
B9: SEQ ID NO: 21 (peptide)
peptide: Ac-AQTAR[S5]IQR[S5]L[2Nal]-NH2
modifications: staple 6-10
SMILES: CC[C@H](C)[C@@H]1NC(=O)[C@@](C)(NC(=O)[C@H](CCCNC(=N)N)NC(=O)[C@H](C)NC(=O)[C@@H](NC(=O)[C@H](CCC(N)=O)NC(=O)[C@H](C)NC(C)=O)[C@@H](C)O)CCCC=CCCC[C@@](C)(C(=O)N[C@@H](CC(C)C)C(=O)N[C@@H](Cc2ccc3ccccc3c2)C(N)=O)NC(=O)[C@H](CCCNC(=N)N)NC(=O)[C@H](CCC(N)=O)NC1=O

IC50 data for 21 molecules are collected here from US20200262867A1 (WNTRX PHARMACEUTICALS, published 2020).

Bridges are numbered along the chain shown (N, C = ends). Primed or numbered codes have the meaning given here. Where no end group is shown, it is not given here. [ ]: non-standard residue; d: D form. The star is where a group is joined. S5′ = (S)-2-(4'-pentenyl)alanine, olefinic stapling residue closed by ring-closing metathesis; NMeQ′ = N-methylglutamine (N-alpha-methyl, stereo named both D and L in the filing); Phe(3,4-Cl2) = N[C@@H](Cc1ccc(Cl)c(Cl)c1)C(=O)O; PEG4″ = PEG4 (tetraethylene glycol) spacer; Phe(4-Cl) = N[C@@H](Cc1ccc(Cl)cc1)C(=O)O; Phe(4-F) = N[C@@H](Cc1ccc(F)cc1)C(=O)O; 2Nal = N[C@@H](Cc1ccc2ccccc2c1)C(=O)O; Palmitoyl = CCCCCCCCCCCCCCCC(=O)*; hArg = N=C(N)NCCCC[C@H](N)C(=O)O; NMeQ = CN[C@@H](CCC(N)=O)C(=O)O; Cha = N[C@@H](CC1CCCCC1)C(=O)O; Cba = N[C@@H](CC1CCC1)C(=O)O; S5 = C=CCCC[C@](C)(N)C(=O)O; NMeC = CN[C@@H](CS)C(=O)O

The IC50 is the concentration that gives 50% inhibition. A high value points to weaker potency.

This experiment deals with T1, β-catenin (UniProt P35222 1-781, limits assumed).
T1 construct: also called beta-catenin
T1 sequence (looked up): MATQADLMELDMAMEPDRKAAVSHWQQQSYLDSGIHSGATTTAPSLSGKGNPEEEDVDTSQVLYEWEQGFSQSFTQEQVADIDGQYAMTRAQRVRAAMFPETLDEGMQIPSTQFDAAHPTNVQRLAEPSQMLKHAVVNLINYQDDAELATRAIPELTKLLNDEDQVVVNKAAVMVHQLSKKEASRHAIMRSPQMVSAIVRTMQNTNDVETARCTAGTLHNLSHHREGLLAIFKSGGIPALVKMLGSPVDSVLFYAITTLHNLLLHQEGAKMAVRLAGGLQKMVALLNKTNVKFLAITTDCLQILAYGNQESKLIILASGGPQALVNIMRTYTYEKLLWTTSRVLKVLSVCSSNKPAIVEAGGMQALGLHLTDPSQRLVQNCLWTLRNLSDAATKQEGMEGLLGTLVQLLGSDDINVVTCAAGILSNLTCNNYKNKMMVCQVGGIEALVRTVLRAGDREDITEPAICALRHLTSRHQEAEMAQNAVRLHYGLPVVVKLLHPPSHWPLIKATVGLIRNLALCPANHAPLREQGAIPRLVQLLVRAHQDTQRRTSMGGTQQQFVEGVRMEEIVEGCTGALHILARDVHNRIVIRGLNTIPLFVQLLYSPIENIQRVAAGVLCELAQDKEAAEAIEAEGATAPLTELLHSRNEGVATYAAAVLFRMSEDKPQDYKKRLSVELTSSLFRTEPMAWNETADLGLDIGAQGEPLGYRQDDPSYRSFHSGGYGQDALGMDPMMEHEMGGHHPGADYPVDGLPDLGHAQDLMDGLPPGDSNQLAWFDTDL
Briefly: ALPHA Screen (BCL9/β-catenin).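 Further: bead proximity readout with the polypeptide linked to donor beads and β-catenin fixed on acceptor beads, their binding bringing the beads close enough to emit signal.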
Text: In this assay, a polypeptide is conjugated to a donor bead and its target protein (i.e., β-catenin) is attached to an acceptor bead. When the two beads are in proximity due to the binding of the polypeptide to the target protein, a signal is generated and the binding affinity of the polypeptide can be quantitatively calculated. The assay may be conducted in the presence or absence of an unconjugated control polypeptide.
The molecule {5‑phenylvaleric acid}-L[NMeQ]TLR[S5]IQR[S5][Cba][2Nal]-NH2 (staple 6-10; not fully specified) [SEQ ID NO: 142] had an IC50 of 6.07 µM.

LQTLRDIQRML[2Nal]PD [SEQ ID NO: 53] showed an IC50 of 27.9 µM. In turn, B1 had a half-maximal inhibitory concentration (IC50) of 2.25 µM.

In turn, Ac-HRQRSLQTL[hArg][S5]IQR[S5][Cba][2Nal]-NH2 (staple 11-15) [SEQ ID NO: 170] returned an IC50 of 0.43 µM.

B2 registered an IC50 of 0.063 µM. B3 displayed an IC50 of 0.305 µM. As for B4, the figure is 0.294 µM; as for B5, 0.312 µM. In the case of B6, 0.155 µM corresponded to half-maximal inhibition (IC50). To B7 belongs 0.324 µM; to B8, 0.384 µM. Ac-LQTLR[S5]IQR[S5]A[2Nal]-NH2 (staple 6-10) [SEQ ID NO: 77]: it took 7.68 µM to reach half-maximal inhibition (IC50). In the case of Ac-LQTLR[S5′]IQE[S5′]L[2Nal]-NH2 (staple 6-10) [SEQ ID NO: 99], 50 µM corresponded to half-maximal inhibition (IC50). Consider Ac-LQTLK[S5]IQR[S5]L[2Nal]-NH2 (staple 6-10) [SEQ ID NO: 100], for which the IC50 came to 14.4 µM. To Ac-LQTLR[S5]AQR[S5]A[2Nal]-NH2 (staple 6-10; not fully specified; printed as LQTLRXAQRXA(2-Nal)) [SEQ ID NO: 23] belongs 30 µM. Ac-LQTAR[S5]AQR[S5]L[2Nal]-NH2 (staple 6-10; not fully specified; printed as LQTARXAQRXL(2-Nal)) [SEQ ID NO: 22] displayed an IC50 of 11.4 µM. In turn, Ac-LQTLR[S5]AQR[S5]L[2Nal]-NH2 (staple 6-10) [SEQ ID NO: 76] returned an IC50 of 8.99 µM. As for B9, the figure is 7.61 µM; as for Ac-LQTAR[S5]IQR[S5]L[2Nal]-NH2 (staple 6-10) [SEQ ID NO: 75], 6.29 µM.

Ac-LQTLE[S5′]IQR[S5′]L[2Nal]-NH2 (staple 6-10) [SEQ ID NO: 98] displayed an IC50 of 47.1 µM. The molecule Ac-HRQRSLQTLR[S5]IQ[hArg][S5][Cba][2Nal]-NH2 (staple 11-15) [SEQ ID NO: 171] yielded an IC50 of 0.34 µM.
